The supplement of paper PMC5998384

Key:
HeLa Kyoto [1] = assay: solubility in G1/S (NP-40 vs SDS abundance) (log2 ratio); higher = more soluble; details: cell cycle stage: G1/S
HeLa Kyoto [2] = assay: solubility change mitosis vs G1/S (difference of NP-40 vs SDS log2 ratios) (log2 ratio difference); higher = more soluble in mitosis
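Throughout, for solubility change mitosis vs G1/S (difference of NP-40 vs SDS log2 ratios): synchronized HeLa Kyoto cells (double thymidine block for G1/S, nocodazole release for mitosis), protein amounts in NP-40 versus SDS lysates quantified by mass spectrometry, three biological replicates.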
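Throughout, for solubility in G1/S (NP-40 vs SDS abundance): HeLa Kyoto cells arrested at G1/S by double thymidine block, proteins quantified by TMT10plex mass spectrometry in mild NP-40 versus SDS extracts, three biological replicates.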

Sequence of CIC (chain, as listed by the source): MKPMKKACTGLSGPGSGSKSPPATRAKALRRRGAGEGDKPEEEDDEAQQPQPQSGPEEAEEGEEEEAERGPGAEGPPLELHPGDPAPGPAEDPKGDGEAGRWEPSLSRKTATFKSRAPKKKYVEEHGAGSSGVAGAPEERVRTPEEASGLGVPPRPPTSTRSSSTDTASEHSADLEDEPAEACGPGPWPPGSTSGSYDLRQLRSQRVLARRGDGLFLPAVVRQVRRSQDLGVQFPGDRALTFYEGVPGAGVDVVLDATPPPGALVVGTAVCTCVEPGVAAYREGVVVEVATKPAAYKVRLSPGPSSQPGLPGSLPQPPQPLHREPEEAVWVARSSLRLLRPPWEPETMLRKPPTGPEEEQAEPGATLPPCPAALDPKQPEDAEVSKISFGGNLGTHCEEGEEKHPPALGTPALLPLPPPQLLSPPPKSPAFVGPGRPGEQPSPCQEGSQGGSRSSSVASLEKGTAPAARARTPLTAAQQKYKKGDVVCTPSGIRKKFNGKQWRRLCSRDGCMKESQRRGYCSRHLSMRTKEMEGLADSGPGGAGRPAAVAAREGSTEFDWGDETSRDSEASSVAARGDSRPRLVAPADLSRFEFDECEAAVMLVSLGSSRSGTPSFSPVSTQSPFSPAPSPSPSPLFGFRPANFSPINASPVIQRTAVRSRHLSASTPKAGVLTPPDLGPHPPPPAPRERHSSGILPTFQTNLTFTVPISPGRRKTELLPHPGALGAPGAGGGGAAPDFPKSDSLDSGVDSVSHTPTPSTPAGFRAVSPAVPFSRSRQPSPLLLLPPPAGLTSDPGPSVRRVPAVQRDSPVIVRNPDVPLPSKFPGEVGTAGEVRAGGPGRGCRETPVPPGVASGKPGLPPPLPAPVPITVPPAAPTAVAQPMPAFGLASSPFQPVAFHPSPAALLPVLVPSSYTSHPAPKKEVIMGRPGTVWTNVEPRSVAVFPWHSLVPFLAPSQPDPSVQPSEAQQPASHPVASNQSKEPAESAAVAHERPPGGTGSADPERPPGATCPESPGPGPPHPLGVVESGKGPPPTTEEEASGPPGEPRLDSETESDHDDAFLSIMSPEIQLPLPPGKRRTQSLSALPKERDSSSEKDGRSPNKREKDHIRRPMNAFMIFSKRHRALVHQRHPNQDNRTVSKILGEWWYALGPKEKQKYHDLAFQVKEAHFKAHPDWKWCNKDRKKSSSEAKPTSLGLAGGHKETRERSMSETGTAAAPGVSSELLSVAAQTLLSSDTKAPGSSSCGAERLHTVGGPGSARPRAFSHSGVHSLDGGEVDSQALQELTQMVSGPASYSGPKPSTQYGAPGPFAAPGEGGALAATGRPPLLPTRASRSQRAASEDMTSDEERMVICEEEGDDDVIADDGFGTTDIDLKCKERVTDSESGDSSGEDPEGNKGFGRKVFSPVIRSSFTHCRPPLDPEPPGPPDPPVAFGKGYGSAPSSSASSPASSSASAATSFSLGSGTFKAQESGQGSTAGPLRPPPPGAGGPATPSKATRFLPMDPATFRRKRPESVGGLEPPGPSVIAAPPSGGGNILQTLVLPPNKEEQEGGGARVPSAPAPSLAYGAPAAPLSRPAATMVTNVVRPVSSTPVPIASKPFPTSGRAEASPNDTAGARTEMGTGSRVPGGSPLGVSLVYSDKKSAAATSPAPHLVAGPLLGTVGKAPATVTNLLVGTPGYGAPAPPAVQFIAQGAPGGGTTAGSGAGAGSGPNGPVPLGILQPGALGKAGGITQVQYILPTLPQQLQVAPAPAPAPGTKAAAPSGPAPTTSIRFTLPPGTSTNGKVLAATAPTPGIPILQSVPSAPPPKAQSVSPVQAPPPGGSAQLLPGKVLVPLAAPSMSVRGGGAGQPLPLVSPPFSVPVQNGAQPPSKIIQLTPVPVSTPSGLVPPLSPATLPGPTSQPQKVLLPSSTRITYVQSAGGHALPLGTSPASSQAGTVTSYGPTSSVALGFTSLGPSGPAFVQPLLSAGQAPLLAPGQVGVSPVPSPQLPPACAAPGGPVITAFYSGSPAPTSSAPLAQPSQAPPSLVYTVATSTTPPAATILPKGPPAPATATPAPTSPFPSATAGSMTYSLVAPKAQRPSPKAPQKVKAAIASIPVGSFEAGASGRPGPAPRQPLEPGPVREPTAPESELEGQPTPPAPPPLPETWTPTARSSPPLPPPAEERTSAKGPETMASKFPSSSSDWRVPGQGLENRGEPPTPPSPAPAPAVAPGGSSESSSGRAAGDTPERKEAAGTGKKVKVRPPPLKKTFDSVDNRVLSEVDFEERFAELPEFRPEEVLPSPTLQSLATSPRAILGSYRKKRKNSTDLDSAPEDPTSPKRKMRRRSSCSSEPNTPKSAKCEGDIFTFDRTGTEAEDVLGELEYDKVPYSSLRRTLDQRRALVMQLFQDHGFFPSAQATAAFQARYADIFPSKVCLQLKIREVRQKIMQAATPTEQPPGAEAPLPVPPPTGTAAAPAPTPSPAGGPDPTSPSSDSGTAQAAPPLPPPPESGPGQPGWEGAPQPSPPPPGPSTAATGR
Sequence of TFAP2C (chain, as listed by the source): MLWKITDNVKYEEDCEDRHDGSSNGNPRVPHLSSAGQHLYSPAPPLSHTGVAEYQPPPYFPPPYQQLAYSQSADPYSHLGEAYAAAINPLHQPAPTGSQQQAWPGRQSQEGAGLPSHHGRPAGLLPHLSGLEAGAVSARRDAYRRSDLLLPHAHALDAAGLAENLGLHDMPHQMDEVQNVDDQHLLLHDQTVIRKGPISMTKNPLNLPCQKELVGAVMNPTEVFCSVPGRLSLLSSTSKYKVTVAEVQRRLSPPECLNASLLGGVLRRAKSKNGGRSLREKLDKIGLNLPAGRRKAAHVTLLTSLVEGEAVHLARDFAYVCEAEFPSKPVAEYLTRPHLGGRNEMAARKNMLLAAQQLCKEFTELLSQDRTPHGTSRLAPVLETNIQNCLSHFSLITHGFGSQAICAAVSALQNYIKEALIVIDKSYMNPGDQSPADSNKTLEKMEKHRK

Substance	solubility in G1/S (log2) (HeLa Kyoto [1])	solubility change mitosis (log2) (HeLa Kyoto [2])
MPKRSCPFADVAPLQLKVRVSQRELSRGVCAERYSQEVFEKTKRLLFLGAQAYLDHVWDEGCAVVHLPESPKPGPTGAPRAARGQMLIGPDGRLIRSLGQASEADPSGVASIACSSCVRAVDGKAVCGQCERALCGQCVRTCWGCGSVACTLCGLVDCSDMYEKVLCTSCAMFET [SIVA1]	-0.0737	-0.098
MSTEADEGITFSVPPFAPSGFCTIPEGGICRRGGAAAVGEGEEHQLPPPPPGSFWNVESAAAPGIGCPAATSSSSATRGRGSSVGGGSRRTTVAYVINEASQGQLVVAESEALQSLREACETVGATLETLHFGKLDFGETTVLDRFYNADIAVVEMSDAFRQPSLFYHLGVRESFSMANNIILYCDTNSDSLQSLKEIICQKNTMCTGNYTFVPYMITPHNKVYCCDSSFMKGLTELMQPNFELLLGPICLPLVDRFIQLLKVAQASSSQYFRESILNDIRKARNLYTGKELAAELARIRQRVDNIEVLTADIVINLLLSYRDIQDYDSIVKLVETLEKLPTFDLASHHHVKFHYAFALNRRNLPGDRAKALDIMIPMVQSEGQVASDMYCLVGRIYKDMFLDSNFTDTESRDHGASWFKKAFESEPTLQSGINYAVLLLAAGHQFESSFELRKVGVKLSSLLGKKGNLEKLQSYWEVGFFLGASVLANDHMRVIQASEKLFKLKTPAWYLKSIVETILIYKHFVKLTTEQPVAKQELVDFWMDFLVEATKTDVTVVRFPVLILEPTKIYQPSYLSINNEVEEKTISIWHVLPDDKKGIHEWNFSASSVRGVSISKFEERCCFLYVLHNSDDFQIYFCTELHCKKFFEMVNTITEEKGRSTEEGDCESDLLEYDYEYDENGDRVVLGKGTYGIVYAGRDLSNQVRIAIKEIPERDSRYSQPLHEEIALHKHLKHKNIVQYLGSFSENGFIKIFMEQVPGGSLSALLRSKWGPLKDNEQTIGFYTKQILEGLKYLHDNQIVHRDIKGDNVLINTYSGVLKISDFGTSKRLAGINPCTETFTGTLQYMAPEIIDKGPRGYGKAADIWSLGCTIIEMATGKPPFYELGEPQAAMFKVGMFKVHPEIPESMSAEAKAFILKCFEPDPDKRACANDLLVDEFLKVSSKKKKTQPKLSALSAGSNEYLRSISLPVPVLVEDTSSSSEYGSVSPDTELKVDPFSFKTRAKSCGERDVKGIRTLFLGIPDENFEDHSAPPSPEEKDSGFFMLRKDSERRATLHRILTEDQDKIVRNLMESLAQGAEEPKLKWEHITTLIASLREFVRSTDRKIIATTLSKLKLELDFDSHGISQVQVVLFGFQDAVNKVLRNHNIKPHWMFALDSIIRKAVQTAITILVPELRPHFSLASESDTADQEDLDVEDDHEEQPSNQTVRRPQAVIEDAVATSGVSTLSSTVSHDSQSAHRSLNVQLGRMKIETNRLLEELVRKEKELQALLHRAIEEKDQEIKHLKLKSQPIEIPELPVFHLNSSGTNTEDSELTDWLRVNGADEDTISRFLAEDYTLLDVLYYVTRDDLKCLRLRGGMLCTLWKAIIDFRNKQT [MAP3K5]	-1.04	0.654
MAGEEINEDYPVEIHEYLSAFENSIGAVDEMLKTMMSVSRNELLQKLDPLEQAKVDLVSAYTLNSMFWVYLATQGVNPKEHPVKQELERIRVYMNRVKEITDKKKAGKLDRGAASRFVKNALWEPKSKNASKVANKGKSKS [C1D]	-0.223	0.679
NBEAL1	-0.894	-0.118
MAGPAPPVADELPGPAARRLYSRMEASCLELALEGERLCKAGDFKTGVAFFEAAVQVGTEDLKTLSAIYSQLGNAYFYLKEHGRALEYHKHDLLLARTIGDRMGEAKASGNLGNTLKVLGRFDEAAVCCQRHLSIAQEQGDKVGEARALYNIGNVYHAKGKQLSWNAANATQDPGHLPPDVRETLCKASEFYERNLSLVKELGDRAAQGRAYGNLGNTHYLLGNFTEATTFHKERLAIAKEFGDKAAERRAYSNLGNAHVFLGRFDVAAEYYKKTLQLSRQLRDQAVEAQACYSLGNTYTLLQDYERAAEYHLRHLLIAQELADRVGEGRACWSLGNAYVSMGRPAQALTFAKKHLQISQEIGDRHGELTARMNVAQLQLVLGRLTSPAASEKPDLAGYEAQGARPKRTQRLSAETWDLLRLPLEREQNGDSHHSGDWRGPSRDSLPLPVRSRKYQEGPDAERRPREGSHSPLDSADVRVHVPRTSIPRAPSSDEECFFDLLTKFQSSRMDDQRCPLDDGQAGAAEATAAPTLEDRIAQPSMTASPQTEEFFDLIASSQSRRLDDQRASVGSLPGLRITHSNAGHLRGHGEPQEPGDDFFNMLIKYQSSRIDDQRCPPPDVLPRGPTMPDEDFFSLIQRVQAKRMDEQRVDLAGGPEQGAGGPPEPQQQCQPGAS [GPSM1]	0.244	-0.0781
CIC	-0.00578	-0.0541
MDAAEPGLPPGPEGRKRYSDIFRSLDNLEISLGNVTLEMLAGDPLLSEDPEPDKTPTATVTNEASCWSGPSPEGPVPLTGEELDLRLIRTKGGVDAALEYAKTWSRYAKELLAWTEKRASYELEFAKSTMKIAEAGKVSIQQQSHMPLQYIYTLFLEHDLSLGTLAMETVAQQKRDYYQPLAAKRTEIEKWRKEFKEQWMKEQKRMNEAVQALRRAQLQYVQRSEDLRARSQGSPEDSAPQASPGPSKQQERRRRSREEAQAKAQEAEALYQACVREANARQQDLEIAKQRIVSHVRKLVFQGDEVLRRVTLSLFGLRGAQAERGPRAFAALAECCAPFEPGQRYQEFVRALRPEAPPPPPPAFSFQEFLPSLNSSPLDIRKKLSGPLPPRLDENSAEPGPWEDPGTGWRWQGTPGPTPGSDVDSVGGGSESRSLDSPTSSPGAGTRQLVKASSTGTESSDDFEERDPDLGDGLENGLGSPFGKWTLSSAAQTHQLRRLRGPAKCRECEAFMVSGTECEECFLTCHKRCLETLLILCGHRRLPARTPLFGVDFLQLPRDFPEEVPFVVTKCTAEIEHRALDVQGIYRVSGSRVRVERLCQAFENGRALVELSGNSPHDVSSVLKRFLQELTEPVIPFHLYDAFISLAKTLHADPGDDPGTPSPSPEVIRSLKTLLVQLPDSNYNTLRHLVAHLFRVAARFMENKMSANNLGIVFGPTLLRPPDGPRAASAIPVTCLLDSGHQAQLVEFLIVHYEQIFGMDELPQATEPPPQDSSPAPGPLTTSSQPPPPHLDPDSQPPVLASDPGPDPQHHSTLEQHPTATPTEIPTPQSDQREDVAEDTKDGGGEVSSQGPEDSLLGTQSRGHFSRQPVKYPRGGVRPVTHQLSSLALVASKLCEETPITSVPRGSLRGRGPSPAAASPEGSPLRRTPLPKHFEITQETARLLSKLDSEAVPRATCCPDVQPEEAEDHL [GMIP]	0.095	0.0497
MELATRYQIPKEVADIFNAPSDDEEFVGFRDDVPMETLSSEESCDSFDSLESGKQQDVRFHSKYFTEELRRIFIEDTDSETEDFAGFTQSDLNGKTNPEVMVVESDLSDDGKASLVSEEEEDEEEDKATPRRSRSRRSSIGLRVAFQFPTKKLANKPDKNSSSEQLFSSARLQNEKKTILERKKDCRQVIQREDSTSESEDDSRDESQESSDALLKRTMNIKENKAMLAQLLAELNSMPDFFPVRTPTSASRKKTVRRAFSEGQITRRMNPTRSARPPEKFALENFTVSAAKFAEEFYSFRRRKTIGGKCREYRRRHRISSFRPVEDITEEDLENVAITVRDKIYDKVLGNTCHQCRQKTIDTKTVCRNQGCCGVRGQFCGPCLRNRYGEDVRSALLDPDWVCPPCRGICNCSYCRKRDGRCATGILIHLAKFYGYDNVKEYLESLQKELVEDN [CDCA7L]	-0.846	0.727
MQREEKQLEASLDALLSQVADLKNSLGSFICKLENEYGRLTWPSVLDSFALLSGQLNTLNKVLKHEKTPLFRNQVIIPLVLSPDRDEDLMRQTEGRVPVFSHEVVPDHLRTKPDPEVEEQEKQLTTDAARIGADAAQKQIQSLNKMCSNLLEKISKEERESESGGLRPNKQTFNPTDTNALVAAVAFGKGLSNWRPSGSSGPGQAGQPGAGTILAGTSGLQQVQMAGAPSQQQPMLSGVQMAQAGQPGKMPSGIKTNIKSASMHPYQR [MED8]	0.142	0.105
MVGPGPTAAAAVEERQRKLQEYLAAKGKLKSQNTKPYLKSKNNCQNQPPSKSTIRPKNDVTNHVVLPVKPKRSISIKLQPRPPNTAGSQKPKLEPPKLLGKRLTSECVSSNPYSKPSSKSFQQCEAGSSTTGELSRKPVGSLNIEQLKTTKQQLTDQGNGKCIDFMNNIHVENESLDNFLKETNKENLLDILTEPERKPDPKLYTRSKPKTDSYNQTKNSLVPKQALGKSSVNSAVLKDRVNKQFVGETQSRTFPVKSQQLSRGADLARPGVKPSRTVPSHFIRTLSKVQSSKKPVVKNIKDIKVNRSQYERPNETKIRSYPVTEQRVKHTKPRTYPSLLQGEYNNRHPNIKQDQKSSQVCIPQTSCVLQKSKAISQRPNLTVGRFNSAIPSTPSIRPNGTSGNKHNNNGFQQKAQTLDSKLKKAVPQNHFLNKTAPKTQADVTTVNGTQTNPNIKKKATAEDRRKQLEEWQKSKGKTYKRPPMELKTKRKVIKEMNISFWKSIEKEEEEKKAQLELSSKINNTLTECLNLIEGGVPSNEILNILSSIPEAEKFAKFWICKAKLLASKGTFDVIGLYEEAIKNGATPIQELRKVVLNILQDSNRTTEGITSDSLVAETSITSVEELAKKMESVKSCLSPKEREQVTATPRIAKAEQHNYPGIKLQIGPIPRINGMPEVQDMKFITPVRRSSRIERAVSRYPEMLQEHDLVVASLDELLEVEETKCFIFRRNEALPVTLGFQTPES [CKAP2L]	-1.14	0.95
MDSSSSSSAAGLGAVDPQLQHFIEVETQKQRFQQLVHQMTELCWEKCMDKPGPKLDSRAEACFVNCVERFIDTSQFILNRLEQTQKSKPVFSESLSD [TIMM8A]	-0.653	0.392
MSGGLAPSKSTVYVSNLPFSLTNNDLYRIFSKYGKVVKVTIMKDKDTRKSKGVAFILFLDKDSAQNCTRAINNKQLFGRVIKASIAIDNGRAAEFIRRRNYFDKSKCYECGESGHLSYACPKNMLGEREPPKKKEKKKKKKAPEPEEEIEEVEESEDEGEDPALDSLSQAIAFQQAKIEEEQKKWKPSSGVPSTSDDSRRPRIKKSTYFSDEEELSD [ZCRB1]	0.0915	0.122
MNSGRPETMENLPALYTIFQGEVAMVTDYGAFIKIPGCRKQGLVHRTHMSSCRVDKPSEIVDVGDKVWVKLIGREMKNDRIKVSLSMKVVNQGTGKDLDPNNVIIEQEERRRRSFQDYTGQKITLEAVLNTTCKKCGCKGHFAKDCFMQPGGTKYSLIPDEEEEKEEAKSAEFEKPDPTRNPSRKRKKEKKKKKHRDRKSSDSDSSDSESDTGKRARHTSKDSKAAKKKKKKKKHKKKHKE [ZCCHC17]	-1.32	0.661
TFAP2C	-0.0214	0.119
